From patent US12440565 come the findings set out here.

The target in the experiment is CD40 on the surface of mature dendritic cells (mDC) (human) (UniProt P25942). Description: cell-based or functional assay.

Bounds are passed on as bounds.

CD40 on the surface of mature dendritic cells (mDC) (human), sequence (P25942 21-277): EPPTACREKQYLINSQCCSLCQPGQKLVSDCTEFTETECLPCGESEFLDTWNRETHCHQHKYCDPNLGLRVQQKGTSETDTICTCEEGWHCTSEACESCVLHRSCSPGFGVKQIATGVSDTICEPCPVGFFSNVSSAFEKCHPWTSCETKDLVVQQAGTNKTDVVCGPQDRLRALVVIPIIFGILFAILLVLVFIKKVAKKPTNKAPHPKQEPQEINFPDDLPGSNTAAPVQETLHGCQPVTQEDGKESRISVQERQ

B1: Cifurtilimab (antibody, INN chains, looked up, V domains shown)
VH: EVQLVESGGGLVQPGGSLRLSCAASGYSFTGYYIHWVRQAPGKGLEWVARVIPNAGGTSYNQKFKGRFTLSVDNSKNTAYLQMNSLRAEDTAVYYCAREGIYWWGQGTLVTVSS
VL: DIQMTQSPSSLSASVGDRVTITCRSSQSLVHSNGNTFLHWYQQKPGKAPKLLIYTVSNRFSGVPSRFSGSGSGTDFTLTISSLQPEDFATYFCSQTTHVPWTFGQGTKVEIK
B1 returned a CD83+ (%) of mDC at 0.001 µg/mL Cifurtilimab of 83.4%, a CD83+ (%) of mDC at 0.01 µg/mL Cifurtilimab of 84.6%, a CD83+ (%) of mDC at 0.1 µg/mL Cifurtilimab of 93.3% and a CD83+ (%) of mDC at 1 µg/mL Cifurtilimab of 94.1%. The CD83+ (%) of mDC at 3 µg/mL Cifurtilimab stood at 95.7%; the CD83+ (%) of mDC at 10 µg/mL Cifurtilimab was determined as 95.7%; the CD83+ (%) of mDC, agonist at 2 µg/mL (control group 81.00) turned out to be 93.2%; the CD83+ (%), Cifurtilimab together with Atezolizumab, batch 1 (control with Atezolizumab alone 92.69) stood at 96.9%. The CD83+ (%), Cifurtilimab together with Atezolizumab, batch 2 (control with Atezolizumab alone 64.27) is 92.3%; the CD83+ (%), Cifurtilimab together with Atezolizumab, batch 3 (control with Atezolizumab alone 89.18) is 97.6%; the CD83+ (%), Cifurtilimab together with Atezolizumab, batch 4 (control with Atezolizumab alone 75.24) is 96.1%; the IL-12p70 (pg/mL) at 0.001 µg/mL Cifurtilimab worked out at 10.2 pg/mL. The molecule also came in with an IL-12p70 (pg/mL) at 0.01 µg/mL Cifurtilimab of 10 pg/mL, an IL-12p70 (pg/mL) at 0.1 µg/mL Cifurtilimab of 309 pg/mL, an IL-12p70 (pg/mL) at 1 µg/mL Cifurtilimab of 312 pg/mL and an IL-12p70 (pg/mL) at 3 µg/mL Cifurtilimab of 397 pg/mL. In addition, the IL-12p70 (pg/mL) at 10 µg/mL Cifurtilimab worked out at 402 pg/mL; the IL-12p70 (pg/mL), Cifurtilimab together with Atezolizumab, batch 1 (control with Atezolizumab alone 4.1) worked out at 450 pg/mL; the IL-12p70 (pg/mL), Cifurtilimab together with Atezolizumab, batch 2 (control with Atezolizumab alone 4.8) is 1220 pg/mL; the IL-12p70 (pg/mL), Cifurtilimab together with Atezolizumab, batch 3 (control with Atezolizumab alone 5.7) was determined as 1110 pg/mL. In addition, the IL-12p70 (pg/mL), Cifurtilimab together with Atezolizumab, batch 4 (control with Atezolizumab alone 5.0) amounted to 454 pg/mL; the IL-12p70 (pg/mL), agonist at 2 µg/mL (control group 50.0) is 1490 pg/mL; the functional and activity indices of mDC (CD83, IL-12, T cell activation) against antibody concentration was over 0.1 µg/mL; the increase of IFN-γ secreting T cells over control, Cifurtilimab together with Atezolizumab is 21.8%. In addition, the increase rate of CD83 positive ratio over control, Cifurtilimab together with Atezolizumab turned out to be 19.1%; the mean CD83+ cells (%), Cifurtilimab together with Atezolizumab (control 80.35%) turned out to be 95.7%; the mean IL-12 secretion, Cifurtilimab together with Atezolizumab (control 4.9 pg/mL) was found to be 746 pg/mL.

B2: Mitazalimab (antibody, INN chains, looked up, V domains shown)
VH: EVQLLESGGGLVQPGGSLRLSCAASGFTFSTYGMHWVRQAPGKGLEWLSYISGGSSYIFYADSVRGRFTISRDNSENALYLQMNSLRAEDTAVYYCARILRGGSGMDLWGQGTLVTVSS
VL: QSVLTQPPSASGTPGQRVTISCTGSSSNIGAGYNVYWYQQLPGTAPKLLIYGNINRPSGVPDRFSGSKSGTSASLAISGLRSEDEADYYCAAWDKSISGLVFGGGTKLTVL
As to B2, the CD83+ (%) of mDC, agonist at 2 µg/mL (control group 81.00) is 95.7% and the IL-12p70 (pg/mL), agonist at 2 µg/mL (control group 50.0) stood at 1470 pg/mL.
